Columns and labels:
[1] = aqueous solutions, purified protein; read-out: dissociation constant (Kd); cited from earlier work
[2] = tested on: SH2 domain of Abl (NE-SH2); assay: nuclear envelope (NE) translocation assay of moonbody variants; type: cell-based
Procedure: (§1) To monitor light-induced F-body: antigen association or dissociation, HeLa cells seeded on glass-bottom dishes were co-transfected with the indicated plasmids shown in the figures. Confocal images were acquired 24-48 hours after transfection. The cells were imaged every 4 sec for 2 nmin unless otherwise noted. The 488-nm laser source to excite GFP was also used for photostimulation (with 1-5% output). To quantify fluorescent signals at selected areas, we used the region-of-interest (ROI) toolbox in Nikon NIS-Elements software to define the nuclear envelope (NE) or nucleoplasm (NP) regions. The “Time Measurement” tool was used to determine the mCherry intensities for moonbody variants and GFP intensities for sunbody variants. The fluorescence intensity ratio (FNE/FNP) was used as readout, with the changes in the ratio plotted as F/F0 or ΔF/F0. For spatially-restricted photostimulation, the FRAP module in the Nikon imaging system was used, with the 488-nm laser power output set at 0.2%-5%.
The instant example provides a light-controllable monobody by inserting the LOV2 photoswitch into a fibronectin type III domain (FN3) scaffold that specifically recognizes the Src Homology 2 (SH2) domain of Abelson tyrosine kinase (Abl). […]

SH2-mEmerald = assay: moonbody regulated protein degradation; type: cell-based; conditions: moonbody fused with AFB2, escalating doses of pulsed light
Procedure: The plasmid encoding the moonbody fused with the F-box protein atAFB2 was co-transfected with SH2-mEmerald into HeLa cells. Cells were treated with or without a customized blue light source (470 nm, 40 μW/mm2) after 16 h transfection. Light stimulation was applied for 10% (1 min ON, 9 min OFF), 30% (3 min ON, 7 min OFF), or 50% (5 min ON, 5 min OFF). After an additional 16 hours, cells were imaged and SH2-mEmerald mean intensity were measured. Moonbody without atAFB2 was used as control.
It was then evaluated if moonbody could be utilized to conditionally fine-tune the expression levels of its binding target. The SH2-specific moonbody was fused with the auxin signalling F-box 2 protein (AFB2), a component in the Skp1-Cu1-F-Box (SCF) E3 ubiquitin ligase complex that can recruit auxin-inducible degrons for proteasomal degradation. Monobody can directly recognize its target, thus obviating the need for auxin and the fusion of the degron tag to a target protein.

[3] = tested on: mCherry (NE-tethered mCh-lamin A); assay: NP-to-NE translocation assay of sunbody variants; type: cell-based; conditions: HeLa cells, GFP-tagged LaM8-LOV2 constructs, after photostimulation
Procedure: as §1
The instant example screens photo-switchable nanobodies using a similar engineering approach and the NE translocation assay (see FIGS. 20A-20B). For this example, an mCherry-specific nanobody (LaM8) was used and LOV2 was inserted into flexible loop regions opposing the CDRs (see FIG. 20B and FIG. 21A), the latter of which are involved in direct antigen recognition and thus remain unperturbed.

[4] = HeLa cells
Procedure: The PM-translocation of acVHH-PB variants was used as a readout for high-content imaging. HeLa cells were seeded in a glass-bottom 96-well microplate (Cellvis, Mountain View, CA, USA) at a density of 1×10^4 cells/well and cultured in 40 μL DMEM supplemented with 10% FBS in 5% CO2 at 37° C. 12 hours later, the constructed plasmids were transfected into HeLa cells with Lipofectamine 3000. After 18 hours, the microplate was mounted on the IN Cell Analyzer 6000 (GE) high-content imaging instrument in the absence of caffeine and performed fast imaging with four captured views per well. Next, the microplate was incubated with caffeine (1 μM) for 10 min and re-imaged using the same parameters. The exported florescent images were then analyzed with an Image J PathFinder plugin for automated membrane detection and quantification. The screened top candidate mutations were further characterized by titration with increasing doses of caffeine to obtain the EC50 cures in living cells. The PM/Cytosol ratios were quantified and plotted against the dosest to obtain the apparent binding affinity. […]
Caffeine was titrated into HeLa cells expressing YFP-acVHH-PB variants (as shown in FIG. 2C) and used the PM-to-cytosol ratio of fluorescent signal as a sensitive readout.

B1: WT: wild-type anti-caffeine single variable domain on a heavy chain (acVHH), tested as PB-tagged YFP fusion (protein)
VHH: QLVESGGGLVQAGGSLRLSCAVSGRPFSEYNLGWFRQAPGKEREFVARIRSSGTTVYTDSVKGRFSASRDNATCVVHYTGMLEDGKKFDSSRDRNKPFKFMLGKQEVIRGWEEGVAQMSVGQRAKLTISPDYAYGATGHGSGSGSGVKDLLQAWDLYYHVFRRISGPPGPGSGLWHEMWHEGLEEASRLYFGERNVKGMFEVLEPLHAMMERGPQTLKETSFNQAYGRDLMEAQEWCRKYMKSGSSGGSGSGIIPPHATLVFDVELLKLEKNMGYLQLNSLEPEDTAVYYCAMSRVDTDSPAFYDYWGQGTQVTVSTPRS
Kd [1]: 500 nM

B2: moonbody: anti-SH2 Abl monobody with LOV2 inserted at site S5 (optimized), SEQ ID NO: 1 (protein)
chain: VSSVPTKLEVVDATPTSLKISWDAYYSSWQNVKYYRITYGETGGDSPVQEFTVPGYYSTATISGLKPGSGLATTLERIEKNFVITDPRLPDNPIIFASDSFLQLTEYSREEILGRNCRFLQGPETDRATVRKIRDAIDNQTEVTVQLINYTKSGKKFWNLFHLQPMRDQKGDVQYFIGVQLDGTEHVRDAAEREGVMLIKKTAENIDEAAKELGVDYTITVYAYDTFFPGYEPNSPISINYRT
light-dependent moonbody-target interaction ([2]; HeLa cells, NE/NP ratio of mCh signals): almost complete dissociation from NE | repeated NE-to-NP translocation, number of dark-light cycles ([2]; reversibility): at least 10 dark-light cycles | target protein level under pulsed light (SH2-mEmerald): gradual recovery of SH2-mEmerald signals

B3: sunbody: anti-mCherry nanobody LaM8 with LOV2 at N-terminus (S0) and S3 loop, SEQ ID NO: 2 (protein)
chain: LATTLERIEKNFVITDPRLPDNPIIFASDSFLQLTEYSREEILGRNCRFLQGPETDRATVRKIRDAIDNQTEVTVQLINYTKSGKKFWNLFHLQPMRDQKGDVQYFIGVQLDGTEHVRDAAEREGVMLIKKTAENIDEAAKELKLMAQVQLVESGGGLVQAGGSLRLSCAVSGRPFSEYNLGWFRQAPGKEREFVARIRSSGTTVYTDSVKGRFSASRDNALERIEKNFVITDPRLPDNPIIFASDSFLQLTEYSREEILGRNCRFLQGPETDRATVRKIRDAIDNQTEVTVQLINYTKSGKKFWNLFHLQPMRDQKGDVQYFIGVQLDGTEHVRDAAEREGVMLIKKTAENIDEAAKNMGYLQLNSLEPEDTAVYYCAMSRVDTDSPAFYDYWGQGTQVTVSTPRS
light-induced change in the NE/NP ratio [3]: over 80%

B4: biCOSMO-L: two COSMO copies connected by longer mixed flexible and rigid linker, SEQ ID NO: 7 (protein)
chain: EVQLQASGGGLVQAGGSLRLSCTASGRTGTIYSMAWFRQAPGKEREFLATVGWSSGITYYMDSVKGRFTISRDNAKNSAYLQMNSLKPEDTAVYYCTATRAWSVGYDYWGQGTQVTVSHAAAGAPVPYPDPLEPREQKLISEEDLGGSGGAPEVQLQASGGGLVQAGGSLRLSCTASGRTGTIYSMAWFRQAPGKEREFLATVGWSSGITYYMDSVKGRFTISRDNAKNSAYLQMNSLKPEDTAVYYCTATRAWSVGYDYWGQGTQVTVS
caffeine-inducible PM translocation ([4]; 200 or 1000 nM caffeine): caffeine-induced PM translocation was no longer observed | EC50 (caffeine sensitivity), result in words ([4]; PB-tagged variants, caffeine titration): Intramolecular binding

— patent US20250122266A1, “SMART SINGLE-DOMAIN INTRABODIES WITH PRECISION SWITCHES FOR BIOMEDICAL APPLICATIONS” (THE TEXAS A&M UNIVERSITY SYSTEM, priority 2020, published 2025)
